Results published in the supplement of paper PMC10201428.
± gives the standard deviation of the averaged measurements.

Key:
[1] = test system: VchCAST RNA-guided transposition machinery (E. coli BL21(DE3) host, lacZ target); test: relative integration efficiency (T-LR orientation) vs wild-type transposon end (log2 (normalized fold change)); transposon end mutated: left end; higher = more efficient transposition
Summary of the method: (§1)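 Each barcoded pool, 1549 left-end or 1849 right-end transposon variants in a pUC57 mini-transposon donor, went into E. coli BL21(DE3) with a T7-driven effector plasmid (CRISPR array, tniQ-cas8-cas7-cas6, tnsA-tnsB-tnsC). Plates contained 0.1 mM IPTG and were held at 37°C for 18 h. Input plasmids and genomic integration junctions were PCR-amplified and read by Illumina sequencing, with two biological output replicates and four reference barcodes. Relative integration efficiency is the fold change of output over input barcode abundance, normalised to the reference barcodes and log-transformed.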

[2] = test system: VchCAST RNA-guided transposition machinery (E. coli BL21(DE3) host, lacZ target); test: relative integration efficiency (T-RL orientation) vs wild-type transposon end (log2 (normalized fold change)); transposon end mutated: left end; higher = more efficient transposition
Summary of the method: as §1

Sequence | relative integration efficiency (log2) [1] | relative integration efficiency (log2) [2]
AATGTTGTTGATGCAACCATAAAGTGATATTTAGACGTCCTTAACTCTGGCAGGGAGTTCAAGGGACCAACCATATATTGATATCTCACAAAACAACCATAAGTTGATATTTTTGTGAATCGAGTATTTCAGCAAAACTACTGCAGTAAGAA | -3.47 ± 2.7 | -2.69 ± 1.2
AATGTTGTTGATGCAACCATAAAGTGATATTTAGCCGCTTCCGGGGCTGCCCTCTAAGCGCGAGCGCCAACCATATATTGATATCTCACAAAACAACCATAAGTTGATATTTTTGTGAATCGAGTATTTCAGCAAAACTACTGCAGTAAGAA | -0.565 ± 0.97 | -3.92 ± 1.2
AATGTTGTTGATGCAACCATAAAGTGATATTTAGGCAGTGAGCGCAACGCAATTCTTAACCACAAAACAACCATATATTGATATCTCACAAAACAACCATAAGTTGATATTTTTGTGAATCGAGTATTTCAGCAAAACTACTGCAGTAAGAA | -3.58 ± 0.71 | -4.22 ± 1.2
AATGTTGTTGATGCAACCATAAAGTGATATTTATAATTATTTATAATCAGCAACTTAACCACAAAACAACCATATATTGATATCTCACAAAACAACCATAAGTTGATATTTTTGTGAATCGAGTATTTCAGCAAAACTACTGCAGTAAGAAA | -0.645 ± 0.95 | -0.877 ± 0.61
AATGTTGTTGATGCAACCATAAAGTGATATTTATACCGTTCGTATAATGTATGCTATACCAAGTTATCAACCATATATTGATATCTCACAAAACAACCATAAGTTGATATTTTTGTGAATCGAGTATTTCAGCAAAACTACTGCAGTAAGAA | -3.21 ± 0.88 | -4.32 ± 1.2
AATGTTGTTGATGCAACCATAAAGTGATATTTATTGTGAGCGGATAACAATTGTGAGCGGATAACAACAACCATATATTGATATCTCACAAAACAACCATAAGTTGATATTTTTGTGAATCGAGTATTTCAGCAAAACTACTGCAGTAAGAA | -6.162 ± 0.037 | -6.71 ± 0.35
AATGTTGTTGATGCAACCATAAAGTGATATTTATTTATGGCTAGCTCAGTCCTAGGTACAATGCTAGCAACCATATATTGATATCTCACAAAACAACCATAAGTTGATATTTTTGTGAATCGAGTATTTCAGCAAAACTACTGCAGTAAGAA | -2.71 ± 0.58 | -4.66 ± 0.6
AATGTTGTTGATGCAACCATAAAGTGATATTTCCGCCGGCGGGCGCCGACTACCAGGCCAACACCCCACCAACGCGCGGTCGCGAGACACCCCACCAACGCCTGGTCGCGGGGGTGTCCGATCTGATTTCAGCAAAACTACTGCAGTAAGAA | -5 ± 1.2 | -6.65 ± 1.1
AATGTTGTTGATGCAACCATAAAGTGATATTTGCTAGCACTATACCTAGGACTGAGCTAGCCGTCAACAACCATATATTGATATCTCACAAAACAACCATAAGTTGATATTTTTGTGAATCGAGTATTTCAGCAAAACTACTGCAGTAAGAA | < -10 | -5.87 ± 1
AATGTTGTTGATGCAACCATAAAGTGATATTTGCTAGCATTGTACCTAGGACTGAGCTAGCCATAAACAACCATATATTGATATCTCACAAAACAACCATAAGTTGATATTTTTGTGAATCGAGTATTTCAGCAAAACTACTGCAGTAAGAA | -4.41 ± 1.3 | -3.5 ± 0.79
AATGTTGTTGATGCAACCATAAAGTGATCGGGCATAATTATTTATAATCAGCAACTTAACCACAAAACAACCATATATTGATCGAGAACAAAACAACCATAAGTTGATCGGGGTGTGAATCGAGTATTTCAGCAAAACTACTGCAGTAAGAA | -3.33 ± 1.4 | -3.68 ± 1.3
AATGTTGTTGATGCAACCATAAAGTGATCGGGCCGCCGGCGGGCGCCGACTACCAGGCCAACACCCCACCAACGCGCGGTCGCGAGACACCCCACCAACGCCTGGTCGCGGGGGTGTCCGATCTGATTTCAGCAAAACTACTGCAGTAAGAA | -7.44 ± 0.81 | -8.26 ± 1.7
AATGTTGTTGATGCAACCATAAAGTGATTAAATATAATTATTTATAATCAGCAACTTAACCACAAAACAACCATATATTGATTAGAGACAAAACAACCATAAGTTGATTAAAATGTGAATCGAGTATTTCAGCAAAACTACTGCAGTAAGAA | -1.1 ± 0.76 | -2.17 ± 0.87
AATGTTGTTGATGCAACCATAAAGTGTATAAATATAATTATTTATAATCAGCAACTTAACCACAAAACAACCATATATTGTATAGAGACAAAACAACCATAAGTTGTATAAAATGTGAATCGAGTATTTCAGCAAAACTACTGCAGTAAGAA | -3.62 ± 1.7 | -4.69 ± 1.2
AATGTTGTTGATGCAACCATAACTGTCGCGGGCCGCCGGCGGGCGCCGACTACCAGGCCAACACCCCACCAACGCGCGGTCGCGAGACACCCCACCAACGCCTGGTCGCGGGGGTGTCCGATCTGATTTCAGCAAAACTACTGCAGTAAGAA | < -10 | < -10
AATGTTGTTGATGCAACCATAAGTTGATATTTTATAATTATTTATAATCAGCAACTTAACCACAAAACAACCATAAAATGATAATTAACAAAAGTTGGTATTCAACTATAAAATGTGAATCGAGTATTTCAGCAAAACTACTGCAGTAAGAA | -0.577 ± 0.68 | -2.57 ± 1.1
AATGTTGTTGATGCAACCATAAGTTGATATTTTATAATTATTTATAATCAGCAACTTAACCACAAAACAACCATAAAGTGATATTTAACAAAAGTTGGTATTCAACTATAAAATGTGAATCGAGTATTTCAGCAAAACTACTGCAGTAAGAA | -1.03 ± 1.1 | -2.4 ± 0.96
AATGTTGTTGATGCAACCATAAGTTGATATTTTATAATTATTTATAATCAGCAACTTAACCACAAAACAACCATAAGTTGATATTTTACAAAAGTTGGTATTCAACTATAAAATGTGAATCGAGTATTTCAGCAAAACTACTGCAGTAAGAA | -1.03 ± 2.3 | -3.19 ± 1.4
AATGTTGTTGATGCAACCATAAGTTGATATTTTATAATTATTTATAATCAGCAACTTAACCACAAAACAACCATATATTGATATCTCACAAAAGTTGGTATTCAACTATAAAATGTGAATCGAGTATTTCAGCAAAACTACTGCAGTAAGAA | -1.32 ± 0.89 | -2.64 ± 1.1
AATGTTGTTGATGCAACCATAAGTTGATATTTTATAATTATTTATAATCAGCAACTTAACCACAAAACACCCATAAATTGATAATTAACAAAAGTTGGTATTCAACTATAAAATGTGAATCGAGTATTTCAGCAAAACTACTGCAGTAAGAA | -0.777 ± 0.9 | -2.37 ± 1.2
AATGTTGTTGATGCAACCATAAGTTGATATTTTATAATTATTTATAATCAGCAACTTAACCACAAAACACCCATAAATTGATATTGCACAAAAGTTGGTATTCAACTATAAAATGTGAATCGAGTATTTCAGCAAAACTACTGCAGTAAGAA | -1.01 ± 1.3 | -3.48 ± 1.3
AATGTTGTTGATGCAACCATACCTGTCGCGGGCCGCCGGCGGGCGCCGACTACCAGGCCAACACCCCACCAACGCGCGGTCGCGAGACACCCCACCAACGCCTGGTCGCGGGGGTGTCCGATCTGATTTCAGCAAAACTACTGCAGTAAGAA | < -10 | < -10
AATGTTGTTGATGCAACCATATATTGATATCTCATAATTATTTATAATCAGCAACTTAACCACAAAACAACCATAAAATGATAATTAACAAAAGTTGGTATTCAACTATAAAATGTGAATCGAGTATTTCAGCAAAACTACTGCAGTAAGAA | -1.34 ± 1 | -3.2 ± 1.5
AATGTTGTTGATGCAACCATATATTGATATCTCATAATTATTTATAATCAGCAACTTAACCACAAAACAACCATAAAGTGATATTTAACAAAAGTTGGTATTCAACTATAAAATGTGAATCGAGTATTTCAGCAAAACTACTGCAGTAAGAA | -1.75 ± 1.5 | -3.25 ± 1.2
AATGTTGTTGATGCAACCATATATTGATATCTCATAATTATTTATAATCAGCAACTTAACCACAAAACAACCATAAGTTGATATTTTACAAAAGTTGGTATTCAACTATAAAATGTGAATCGAGTATTTCAGCAAAACTACTGCAGTAAGAA | -1.84 ± 0.76 | -3.58 ± 1.4
AATGTTGTTGATGCAACCATATATTGATATCTCATAATTATTTATAATCAGCAACTTAACCACAAAACAACCATATATTGATATCTCACAAAAGTTGGTATTCAACTATAAAATGTGAATCGAGTATTTCAGCAAAACTACTGCAGTAAGAA | -2.34 ± 0.9 | -3.5 ± 1.4
AATGTTGTTGATGCAACCATATATTGATATCTCATAATTATTTATAATCAGCAACTTAACCACAAAACACCCATAAATTGATAATTAACAAAAGTTGGTATTCAACTATAAAATGTGAATCGAGTATTTCAGCAAAACTACTGCAGTAAGAA | -1.08 ± 1.5 | -3.56 ± 1.4
AATGTTGTTGATGCAACCATATATTGATATCTCATAATTATTTATAATCAGCAACTTAACCACAAAACACCCATAAATTGATATTGCACAAAAGTTGGTATTCAACTATAAAATGTGAATCGAGTATTTCAGCAAAACTACTGCAGTAAGAA | -2.2 ± 1.6 | -4.07 ± 1.2
AATGTTGTTGATGCAACCATATTCACATATTTAATAATTATTTATAATCAGCAACTTAACCACAAAACAACCATAATAACATATCTCACAAAACAACCATATCAACATATTTTTGTGAATCGAGTATTTCAGCAAAACTACTGCAGTAAGAA | < -10 | -7.41 ± 0.33
